# Reference: article PMC8439235, “High-yield synthesis and purification of recombinant human GABA transaminase for high-throughput screening assays” (Journal of Enzyme Inhibition and Medicinal Chemistry, 2021)
# B1: 6xHis-tagged recombinant human GABA transaminase (GABA-T) (enzyme)
# chain: not shown
# notes: human GABA transaminase (GABA-T; EC 2.6.1.19) encoded by the ABAT gene; The band on reducing SDS-PAGE was 53 kDa; The purification tag was not removed; also called γ-aminobutyric acid transaminase; 4-aminobutyrate transaminase; source: Expi293F cells, transiently transfected, purified (Ni-NTA, size-exclusion chromatography); not shown: Avi-tag (preceded by an HRV 3C protease site), C-terminal, …
# Biological target: the molecule itself
# Experiment: SEC; Superdex 200 Increase 10/300 GL, 50 mM K4P2O7 buffer pH 8.6, 0.5 ml/min, 4 °C; size judged against standard peaks (158 kDa and 44 kDa) and the 53 kDa monomer band on reducing SDS-PAGE
protein,measurement,value
B1,stoichiometry N,2
